In publication doi:10.1101/2020.05.14.097071:
Read-outs that look alike come from different tables or passages of the source.

What was measured:
[1] = molecular target: monomeric RAD51 (HumRadA22)
[2] = molecular target: monomeric RAD51 (HumRadA22); experiment: ITC
[3] = molecular target: monomeric RAD51 (HumRadA22); experiment: fluorescence polarisation

Substance	Kd [1] [nM]	Kd [2] [nM]	Kd [3] [nM]
BRC4 with deletion of Lys1530 (peptide)	4100	–	–
BRC8-2(S2056A) (peptide)	–	5	–
GB1-BRC4 (peptide)	21	11	38
GB1-BRC4-5 (peptide)	–	–	2100
GB1-BRC7-8 (peptide)	–	–	11000
